The target in experiment [1] is USP5 (UniProt P45974). Put plainly: anti-HA co-immunoprecipitation, immunoblot. To be noted: reference: PD-1 wild type; sites T234.
Experiment [2] has as its target USP5 (UniProt P45974). The experiment can be described thus: GST-USP5 pull-down from cell lysate. The conditions noted are these: reference: PD-1-cHA wild type lysate; sites T234.
For experiment [3], the target named is USP5 (UniProt P45974). The experiment can be described thus: biotin-peptide streptavidin pull-down. To be noted: reference: unphosphorylated PD-1 peptide; sites T234.
In another experiment the target is USP5 UBA1/2 domains (UniProt P45974). Put plainly: biotin-peptide streptavidin pull-down. To be noted: reference: unphosphorylated PD-1 peptide; sites T234.
Experiment [4] addresses USP5 (UniProt P45974). The experiment can be described thus: GST pull-down with purified His-USP5. To be noted: reference: GST-PD-1 (192-288) wild type, ERK1-treated; sites T234.
The next experiment addresses T1, His-USP5 (human, UniProt P45974 1-858).
T1 construct: recombinant human USP5, His-tagged; also called recombinant human USP5 protein; purified recombinant His-USP5; source: bought: Sino biological (12772-H08B), purified recombinant USP5 from baculovirus-insect cells
T1 sequence (looked up): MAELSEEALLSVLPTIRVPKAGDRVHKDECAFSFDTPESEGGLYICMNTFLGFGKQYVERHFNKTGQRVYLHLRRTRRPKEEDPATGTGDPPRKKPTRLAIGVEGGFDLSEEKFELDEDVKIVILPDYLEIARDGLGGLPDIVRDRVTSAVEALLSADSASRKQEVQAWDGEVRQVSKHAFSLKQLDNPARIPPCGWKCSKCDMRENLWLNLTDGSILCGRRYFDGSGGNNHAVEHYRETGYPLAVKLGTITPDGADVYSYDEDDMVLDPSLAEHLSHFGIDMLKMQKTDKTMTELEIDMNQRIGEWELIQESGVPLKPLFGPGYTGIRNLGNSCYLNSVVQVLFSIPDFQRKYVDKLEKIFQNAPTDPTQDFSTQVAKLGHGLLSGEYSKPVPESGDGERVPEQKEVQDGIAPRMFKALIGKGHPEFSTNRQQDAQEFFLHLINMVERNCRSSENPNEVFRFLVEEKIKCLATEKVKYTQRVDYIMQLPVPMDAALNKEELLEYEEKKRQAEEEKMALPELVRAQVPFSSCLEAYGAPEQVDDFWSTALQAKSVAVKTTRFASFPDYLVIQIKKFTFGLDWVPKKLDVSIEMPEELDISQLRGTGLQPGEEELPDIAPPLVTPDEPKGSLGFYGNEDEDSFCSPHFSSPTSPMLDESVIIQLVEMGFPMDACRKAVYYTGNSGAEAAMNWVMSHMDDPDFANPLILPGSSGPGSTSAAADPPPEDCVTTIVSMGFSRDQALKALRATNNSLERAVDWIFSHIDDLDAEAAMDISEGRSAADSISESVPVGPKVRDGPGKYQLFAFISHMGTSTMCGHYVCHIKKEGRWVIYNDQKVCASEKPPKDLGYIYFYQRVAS
The experiment can be described thus: pull-down; bacterially purified GST-PD-1 (192-288) phosphorylated by ERK1 in vitro, then GST pull-down with purified recombinant His-USP5, immunoblot. To be noted: both partners purified.

As to PD-1 (from UniProt Q15116) PD-1 T234A, in the experiment with USP5 [1], the “binding against the reference” value is listed as “weaker”.
Take “PD-1 (from UniProt Q15116) PD-1-cHA T234A lysate”: the “binding against the reference” value with USP5 [2] is “weaker”.
As to “PD-1 (from UniProt Q15116) pT234 PD-1 peptide”, the “binding against the reference” value with USP5 [3] and with USP5 UBA1/2 domains was “gained” each time.
As to “PD-1 cytoplasmic region, 192-288 (from UniProt Q15116) GST-PD-1 (192-288) T234A, ERK1-treated”, the “binding against the reference” value with USP5 [4] was “weaker”.

B1: ERK1-phosphorylated GST-PD-1 (192-288) (domain or fragment, human, UniProt Q15116 192-288, looked up)
chain: CSRAARGTIGARRTGQPLKEDPSAVPVFSVDYGELDFQWREKTPEPPVPCVPEQTEYATIVFPSGMGTSSPARRGSADGPRSAQPLRPEDGHCSWPL
modifications: phosphorylated by ERK1 in vitro (the paper maps the ERK site to Thr234)
notes: source: E. coli BL21, purified, then phosphorylated by ERK1 in vitro
As for B1, the binding result in the experiment with His-USP5 was “binds”.

For the origin of these results see paper PMC10199079, “ERK and USP5 govern PD-1 homeostasis via deubiquitination to modulate tumor immunotherapy” (Nature Communications, 2023).
